# Laboratory results from publication PMC10191836.
# Legend:
# [1] = biological target: fibrillin microfibrils purified from bovine ciliary zonules (bovine (endogenous in ciliary zonule)); assay: cryo-EM structure; native bovine ciliary zonule microfibrils in 20 mM Tris-HCl, 150 mM NaCl, 2 mM CaCl2 pH 7.4; single-particle reconstruction of bead (9.7 Å) and arm (18.3 Å) regions, C2 symmetry imposed
# [2] = biological target: fibrillin microfibrils purified from bovine ciliary zonules (bovine (endogenous in ciliary zonule)); assay: STEM mass mapping; full-length LTBP-1 incubated with bovine microfibrils at a 2:1 molar ratio for 4 h at 4 °C; mass per microfibril repeat with and without LTBP-1
fibrillin monomers per microfibril repeat (monomers per repeat) [1],stoichiometry N (LTBP-1 molecules per microfibril repeat) [2],Substance
8,,fibrillin microfibrils purified from bovine ciliary zonules (complex)
,2,full-length human LTBP-1S (short splice form of latent TGFβ-binding protein-1) (natural protein)
